The values below come from publication PMC12607630.

The target in the assay is 6×His-SUMO-FtsZ 370-383 (Escherichia coli) (UniProt P0A9A6). As to the kind of experiment: BLI; 6×His-SUMO fusions of FtsZ or its parts, or SUMO alone (0.5 µM), held on Ni-NTA biosensors, untagged ZapC in solution; Octet-Red96, 30°C, 1× Pol buffer (50 mM HEPES-NaOH pH 6.8, 50 mM KCl, 10 mM MgCl2); apparent Kd from the signal at the end of association against concentration, one-site fit; three repeats with mean (X) and SD.

pKd: −log10 of the molar value. Where “and” joins values, the source holds several entries; their conditions need not be identical. Equal entries are not always repeated.

In the case of “ZapC (untagged) (from UniProt P75862 1-180) (natural protein)”, the negative logarithm of the Kd (pKd) was 4.99 and 5.09 and 5.00.

Broadly, the pKd is the Kd on a negative log10 scale, so that one unit is a factor of ten.
